According to patent publication US20250090676A1 (SUTRO BIOPHARMA, published 2025):

How the values were obtained:
[1] = molecular target: T1, cynomolgus folate receptor alpha on CHO cells (cynomolgus monkey, UniProt P15328 25-234 (human entry)); assay: FACS cell binding on CHO-c-FOLRα cells (row 'Cross-reactivity, Cyno')
T1 construct: Stably expressed on CHO cells; also called CHO-c-FOLRα; CHO-cFOLR1
Experimental: (§1) CHO cells were transfected to stably express human (CHO-hFOLR1), cynomolgus (CHO-cFOLR1), or mouse (CHO-mFOLR1) target molecule FOLR1 on the cell surface. Parental CHO cells were used as a negative control to determine background binding levels. Parental CHO and stably transfected CHO-hFOLR1, CHO-cFOLR1, and CHO-mFOLR1 cells were cultured in Ham's F-12: high glucose DMEM (50:50) (Corning, Cellgro-Mediatech) supplemented with 10% heat-inactivated fetal bovine serum (Corning, Cellgro-Mediatech), 1% Penicillin/Streptomycin (Corning, Cellgro-Mediatech) and 2 mmol/L-glutamax (Life Technology).
(§2) A mixture of fluoresecent-labeled parental CHO cells and unlabeled CHO-hFOLRlcells were prepared as follows. Parental CHO cells were washed twice in PBS and incubated in PBS containing with 1 nM CellTrace™ Oregon Green488® (Life Technologies) at 37° C. for 30 minutes. Labeled parental CHO cells were then washed 2× with Ham's F-12 media and 2× with FACS buffer (PBS with 1% bovine serum albumin). Unlabeled CHO-hFOLR1 cells were similarly washed and prepared. […] Data were analyzed using FlowJo® software (FlowJo, LLC; Ashland, OR) to determine mean fluorescence intensities. Binding constants were calculated using the statistical software, GraphPad Prism (GraphPad Software; La Jolla, CA) using the nonlinear regression equation, one site-specific binding with Hill slope. […]

human FOLR1-HIS [2] = molecular target: T2, human FOLR1-HIS (human, UniProt P15328 25-233); assay: SPR (Biacore)
T2 construct: Analyte of the Biacore assay; also called FolRα-ECD; extracellular domain of FOLR1; not shown: HIS tag
T2 sequence (P15328 25-233 limits assumed): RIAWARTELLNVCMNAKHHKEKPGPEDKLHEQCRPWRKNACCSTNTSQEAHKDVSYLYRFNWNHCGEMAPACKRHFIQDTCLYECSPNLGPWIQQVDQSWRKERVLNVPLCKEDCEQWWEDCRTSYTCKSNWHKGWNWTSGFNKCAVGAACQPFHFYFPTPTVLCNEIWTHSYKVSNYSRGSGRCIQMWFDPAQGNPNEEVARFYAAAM

[3] = molecular target: T3, human folate receptor alpha (hFOLR1) on cells (human, UniProt P15328 25-234); assay: FACS cell binding on CHO-h-FOLRα cells
T3 construct: It is endogenous on the Igrov1 and OVCAR3 tumour cells of the killing assays; also called CHO-h-FOLRα; CHO-hFOLR1
T3 sequence (P15328 25-234 limits assumed): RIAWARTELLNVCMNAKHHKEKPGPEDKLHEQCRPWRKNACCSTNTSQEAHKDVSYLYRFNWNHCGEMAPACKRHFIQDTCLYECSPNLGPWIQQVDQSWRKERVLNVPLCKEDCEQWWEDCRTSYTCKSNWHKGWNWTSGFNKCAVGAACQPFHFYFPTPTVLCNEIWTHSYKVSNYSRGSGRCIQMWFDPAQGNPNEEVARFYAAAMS
Experimental: as §1, §2

human FOLR1-HIS [4] = molecular target: T2, human FOLR1-HIS; assay: SPR (Biacore), antibody captured on anti-Fc, human FOLR1-HIS analyte, 25 C
Experimental: Anti-Fc polyclonal antibodies were immobilized onto a CM5 chip (GE Life Sciences) using amine coupling chemistry (from Amine Coupling Kit, GE Life Sciences). The immobilization steps were carried out at a flow rate of 25 μL/min in 1×HBS-EP+ buffer (GE Life Sciences; 10× Stock diluted before use). […] Ethanolamine (1 M, pH 8.5) was injected for 7 min to block any remaining activated groups. An average of 12,000 response units (RU) of capture antibody was immobilized on each flow cell.
Off-rate and kinetic binding experiments were performed at 25° C. using 1×HBS-EP+ buffer. […] Between each ligand capture and analyte binding cycle, regeneration was carried out using 2 injections of 10 mM glycine pH 2.0 for 30 seconds at 30 μL/min, followed by a 30 second buffer wash step.
The data were fit with the Biacore T200 Evaluation software, using a 1:1 Langmuir binding model. KD (affinity, nM) was determined as a ratio of the kinetic rate constants calculated from the fits of the association and dissociation phases.

[5] = molecular target: T4, human folate receptor alpha on cells (human, UniProt P15328 25-234); assay: cell-based or functional assay
T4 sequence (P15328 25-234 limits assumed): as above

[6] = molecular target: T5, human folate receptor beta on cells (human, UniProt P14207 17-230); assay: cell-based or functional assay
T5 sequence (P14207 17-230): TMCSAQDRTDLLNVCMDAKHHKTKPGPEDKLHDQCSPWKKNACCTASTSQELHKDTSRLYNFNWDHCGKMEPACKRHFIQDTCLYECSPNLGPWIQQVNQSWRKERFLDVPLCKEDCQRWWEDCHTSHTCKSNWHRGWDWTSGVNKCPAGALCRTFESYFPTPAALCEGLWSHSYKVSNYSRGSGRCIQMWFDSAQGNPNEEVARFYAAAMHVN

[7] = molecular target: T4, human folate receptor alpha on cells; assay: FACS cell binding (MFI) on 293T-hFOLR1 cells; parental 293T cells as negative control
[8] = molecular target: T4, human folate receptor alpha on cells; assay: FACS cell binding (MFI) on 293T cells stably expressing hFOLR1 (293T-hFOLR1); parental 293T cells as negative control
[9] = molecular target: T3, human folate receptor alpha (hFOLR1) on …; assay: cell-based or functional assay
[10] = molecular target: T5, human folate receptor beta on cells; assay: FACS cell binding (MFI) on 293T cells stably expressing hFOLR2 (293T-hFOLR2); parental 293T cells as negative control

T1 sequence (P15328 other isoform, or with tags, fused parts or gaps limits assumed): as the sequence (P15328 25-234 limits assumed) above, with I2T, W4R, R37K, Q117R, A146P, H171Y counted along it

B1: 1848-B10, Y180/F404 (antibody, V domains shown)
VH: EVQLVESGGGLVQPGGSLRLSCAASGFNTTTKSIHWVRQAPGKGLEWVGEIYPRDGITDYADSVKGRFTISADTSKNTAYLQMNSLRAEDTAVYYCARGGWHWRSGYSYYLDYWGQGTLVTVSS
VL: not shown
modifications: para-azidomethyl-L-phenylalanine (pAMF) at HC-Y180 and HC-F404 (EU numbering; both lie in the heavy chain constant region, not in this VH piece)
notes: Lead antibody with non-natural amino acid sites Y180/F404
[1]
  Kd: 3.3 nM
Human FOLR1-HIS [2]
  Kd: 1.4 nM
[3]
  Kd: 4.5 nM

B2: 1848-H01, Y180/F404 (antibody, V domains shown)
VH: EVQLVESGGGLVQPGGSLRLSCAASGFNIRTQSIHWVRQAPGKGLEWIGDIFPIDGITDYADSVKGRFTISADTSKNTAYLQMNSLRAEDTAVYYCARGSWSWPSGMDYYLDYWGQGTLVTVSS
VL: not shown
modifications: para-azidomethyl-L-phenylalanine (pAMF) at HC-Y180 and HC-F404 (EU numbering; both lie in the heavy chain constant region, not in this VH piece)
notes: as for B1
[1]
  Kd: 3.8 nM
Human FOLR1-HIS [2]
  Kd: 1 nM
[3]
  Kd: 3.7 nM

B3: SRP2060-A06 (antibody, V domains shown)
VH: EVQLLESGGGLVQPGGSLRLSCAFSGFSLSTFGMGVGWVRQAPGKGLEWVGHIWWDDDKYYYPALKGRFTISKDNSKNTVYLQMNSLRAEDTAVYYCGRNHFPHYYGSSHWYFDVWGQGTTVTVSS
VL: DIQMTQSPSTLSASVGDRVTITCKASQDINSYLSWYQQKPGKAPKLLIYRANRLVDGVPSRFSGSGSGTEFTLTISSLQPDDFATYYCLQYDEFPYTFGGGTKVEIK
notes: also called Antibody 59
Human FOLR1-HIS [4]
  Kd: 13.3 nM
  koff: 0.00729 s⁻¹
  kon: 547000 M⁻¹ s⁻¹

B4: ADC Molecule 4 (1848-H01, Y180/F404, Conjugate P) (antibody, V domains shown)
VH: EVQLVESGGGLVQPGGSLRLSCAASGFNIRTQSIHWVRQAPGKGLEWIGDIFPIDGITDYADSVKGRFTISADTSKNTAYLQMNSLRAEDTAVYYCARGSWSWPSGMDYYLDYWGQGTLVTVSS
VL: not shown
modifications: Non-natural amino acid (para-azidomethyl-L-phenylalanine) at HC-Y180 and HC-F404 (EU, in the constant region, which has no SEQ ID NO), each linked to cleavable ValCit hemiasterlin (Conjugate P); DAR about 3.7-3.8
[5]
  EC50 of cytotoxic activity on 293T cells expressing FolRα: < 10 nM
[6]
  EC50 of cytotoxic activity on 293T cells expressing FolRβ: ~100 nM

B5: antibody 1848-H01 (antibody, V domains shown)
VH: EVQLVESGGGLVQPGGSLRLSCAASGFNIRTQSIHWVRQAPGKGLEWIGDIFPIDGITDYADSVKGRFTISADTSKNTAYLQMNSLRAEDTAVYYCARGSWSWPSGMDYYLDYWGQGTLVTVSS
VL: not shown
notes: the light chain is that of trastuzumab; It was tested as an IgG (detected with anti-human IgG); also called SRP1848-H01
[7]
  EC50 (read off the curve): ~10 nM
[8]
  Kd: 9.9 nM

B6: ADC Molecule 4 (1848-H01, Y180/F404, Conjugate P) (antibody, V domains shown)
VH: EVQLVESGGGLVQPGGSLRLSCAASGFNIRTQSIHWVRQAPGKGLEWIGDIFPIDGITDYADSVKGRFTISADTSKNTAYLQMNSLRAEDTAVYYCARGSWSWPSGMDYYLDYWGQGTLVTVSS
VL: not shown
modifications: para-azidomethyl-L-phenylalanine at HC-Y180 and HC-F404 (EU numbering, heavy chain constant region), each linked to the cleavable hemiasterlin linker-drug of Conjugate P; DAR about 3.7-3.8
[9]
  cell killing EC50 on Igrov1 cells in the presence of 0.5 uM unconjugated 1848-H01 as competitor: > 33 nM
  cell killing EC50 on OVCAR3 cells in the presence of 0.5 uM unconjugated 1848-H01 as competitor: > 33 nM

B7: antibody 1848-B10 (antibody, V domains shown)
VH: EVQLVESGGGLVQPGGSLRLSCAASGFNTTTKSIHWVRQAPGKGLEWVGEIYPRDGITDYADSVKGRFTISADTSKNTAYLQMNSLRAEDTAVYYCARGGWHWRSGYSYYLDYWGQGTLVTVSS
VL: not shown
notes: the light chain is that of trastuzumab; It was tested as an IgG; also called SRP1848-B10
[8]
  Kd: 6.4 nM
[10]
  binding result: no binding
